Consider 1 molecule from patent US20240075137A1.

The target of assay [1] is mouse PVRIG on cells (mouse). The assay can be described thus: FACS titration, D10.G4.1 cells.
Assay [2] deals with mouse PVRIG on cells (mouse). The assay can be described thus: FACS, D10.G4.1 cells vs isotype.
Assay [3] addresses mouse PVRIG on cells (mouse). The assay can be described thus: FACS, NK cells, 10 ug/ml vs isotype. For orientation: Flow cytometry measures light scatter and fluorescence of single cells or particles in a stream.
Assay [4] has as its target mouse PVRIG on cells (mouse). The experiment in a line: FACS titration, HEK293 mPVRIG over-expressing cells.
The target in assay [5] is mouse PVRIG on cells (mouse). The experiment in a line: FACS, HEK293 mPVRIG over-expressing vs empty vector cells, 10 ug/ml.
The target of assay [6] is mouse PVRIG-Fc fusion protein (mouse). The experiment in a line: blocking of mPVRIG-Fc (029-Fc) binding to mPVRL2 over-expressing cells.

B1: AB-407 (antibody, V domains shown)
VH: QVQLQQSGAELAKPGSSVMISCKASGYTFTNYAVHWIKQTTGQALEWTGYIAPGSGVTKYNEKFKGKATLTVDKSSTTAYMQLSSLTPVDTAVYYCASGTTRFAYWGQGTLVTVSS
VL: DIVLTQSPALAVSLGQRATISCRASQSVSLSSYNLMQWYQQKPGQEPKILIYDASNLPSGIPARFSGSGSGTDFTLTIDPVQADDIATYYCQQSKDDPLTFGSGTKLEIK
By Kd is commonly meant the equilibrium constant for the complex coming apart. A high value points to lower affinity. The IC50 is the point on the concentration scale where inhibition reaches its midpoint. Molecule B1 registered a Kd in assay [1] of 1.32 nM. This molecule displayed an MFIr on D10.G4.1 (Ab/Iso) in assay [2] of 8. In assay [3], the MFIr on NK cells (Ab/Iso) is 2.8. In addition, the Kd in assay [4] amounted to 0.334 nM. This molecule yielded an MFIr (HEK OX/EV) in assay [5] of 50. In assay [6], this molecule had a % R-L blocking of 95% and an IC50 of 3.99 nM.
